{
  "source": "the supplement of paper PMC6379048",
  "assay_in_all_cases": "Kd (EC50 corrected by depletion factor)",
  "key": {"[1]": {"target": "PTCD3 (UniProt Q96EY7)", "procedure,_shortened": "(§1)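 HEK293-FT lysate (2.5 mg protein/well) was pre-incubated 1 h at 4°C with free RNA oligos (0 nM to 30 μM), then 30 min at 4°C with the same 5′-amino-C6 oligos coupled to NHS-Sepharose beads. Bound proteins were quantified by label-free LC-MS/MS in three biological replicates and two independent experiments, and normalised to the water control. EC50 came from a four-parameter log-logistic fit; Kd is EC50 times a protein-dependent depletion factor.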"}, "[2]": {"target": "T1, GRSF1 (UniProt Q12849)", "T1 sequence": "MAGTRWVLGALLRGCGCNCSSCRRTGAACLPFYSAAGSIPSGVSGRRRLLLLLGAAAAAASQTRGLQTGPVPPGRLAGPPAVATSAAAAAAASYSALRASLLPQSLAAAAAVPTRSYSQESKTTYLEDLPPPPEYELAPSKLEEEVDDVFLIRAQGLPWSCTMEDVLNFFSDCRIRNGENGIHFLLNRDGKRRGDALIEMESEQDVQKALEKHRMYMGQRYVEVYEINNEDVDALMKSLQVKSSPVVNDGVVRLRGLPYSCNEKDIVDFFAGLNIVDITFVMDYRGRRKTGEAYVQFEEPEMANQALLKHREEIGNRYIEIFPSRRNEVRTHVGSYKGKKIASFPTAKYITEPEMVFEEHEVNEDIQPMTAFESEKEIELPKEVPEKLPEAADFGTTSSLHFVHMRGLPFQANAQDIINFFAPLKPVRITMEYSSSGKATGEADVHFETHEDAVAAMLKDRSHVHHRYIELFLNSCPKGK", "procedure,_shortened": "as §1"}, "[3]": {"target": "T2, ZCRB1 (UniProt Q8TBF4)", "T2 sequence": "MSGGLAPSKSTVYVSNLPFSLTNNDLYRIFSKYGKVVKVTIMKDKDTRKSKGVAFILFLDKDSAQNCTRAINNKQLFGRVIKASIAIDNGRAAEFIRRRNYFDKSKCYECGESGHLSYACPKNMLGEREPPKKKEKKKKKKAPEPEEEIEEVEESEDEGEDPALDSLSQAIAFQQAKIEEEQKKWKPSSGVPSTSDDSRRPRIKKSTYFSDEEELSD", "procedure,_shortened": "as §1"}, "[4]": {"target": "T3, RBM38 (UniProt Q9H0Z9)", "T3 sequence": "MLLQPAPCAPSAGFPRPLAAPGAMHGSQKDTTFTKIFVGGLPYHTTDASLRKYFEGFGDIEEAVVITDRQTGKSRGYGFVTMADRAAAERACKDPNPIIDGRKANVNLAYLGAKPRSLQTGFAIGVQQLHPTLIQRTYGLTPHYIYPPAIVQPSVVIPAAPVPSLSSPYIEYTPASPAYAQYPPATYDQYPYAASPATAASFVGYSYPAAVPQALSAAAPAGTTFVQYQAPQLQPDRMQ", "procedure,_shortened": "as §1"}, "[5]": {"target": "MRPL1 (UniProt Q9BYD6)", "procedure,_shortened": "as §1"}, "[6]": {"target": "T4, DDX21 (UniProt Q9NR30)", "T4 sequence": "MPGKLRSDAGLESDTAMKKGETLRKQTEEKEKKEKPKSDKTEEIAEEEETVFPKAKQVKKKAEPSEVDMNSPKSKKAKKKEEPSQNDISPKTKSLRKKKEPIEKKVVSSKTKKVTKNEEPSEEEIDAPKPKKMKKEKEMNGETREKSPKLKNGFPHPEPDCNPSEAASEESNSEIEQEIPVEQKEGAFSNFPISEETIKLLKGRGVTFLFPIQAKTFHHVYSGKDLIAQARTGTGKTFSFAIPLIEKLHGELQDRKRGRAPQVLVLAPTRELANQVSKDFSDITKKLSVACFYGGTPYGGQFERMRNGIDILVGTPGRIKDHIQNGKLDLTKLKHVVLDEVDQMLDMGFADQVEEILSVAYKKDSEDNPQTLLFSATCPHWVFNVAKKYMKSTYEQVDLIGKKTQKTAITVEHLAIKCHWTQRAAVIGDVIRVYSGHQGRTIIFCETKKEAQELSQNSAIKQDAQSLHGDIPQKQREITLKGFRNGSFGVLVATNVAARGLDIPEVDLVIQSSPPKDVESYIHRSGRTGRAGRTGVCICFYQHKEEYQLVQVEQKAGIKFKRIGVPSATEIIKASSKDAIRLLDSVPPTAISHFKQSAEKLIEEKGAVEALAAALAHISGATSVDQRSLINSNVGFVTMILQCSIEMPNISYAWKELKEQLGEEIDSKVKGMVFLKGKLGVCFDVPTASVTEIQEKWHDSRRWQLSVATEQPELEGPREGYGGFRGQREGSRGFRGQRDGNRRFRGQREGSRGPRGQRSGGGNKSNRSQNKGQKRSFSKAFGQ", "procedure,_shortened": "as §1"}, "[7]": {"target": "MRPL17 (UniProt Q9NRX2)", "procedure,_shortened": "as §1"}, "[8]": {"target": "T5, ERI3 (UniProt O43414)", "T5 sequence": "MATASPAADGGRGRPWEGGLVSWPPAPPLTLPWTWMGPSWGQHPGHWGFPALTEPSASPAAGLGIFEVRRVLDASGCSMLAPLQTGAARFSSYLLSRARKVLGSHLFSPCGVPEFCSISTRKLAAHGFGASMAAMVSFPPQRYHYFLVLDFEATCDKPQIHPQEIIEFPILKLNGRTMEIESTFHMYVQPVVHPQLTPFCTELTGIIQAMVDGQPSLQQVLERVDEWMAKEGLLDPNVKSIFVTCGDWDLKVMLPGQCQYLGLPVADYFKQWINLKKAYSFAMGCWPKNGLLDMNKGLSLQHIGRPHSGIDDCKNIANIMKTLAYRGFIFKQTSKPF", "procedure,_shortened": "as §1"}, "[9]": {"target": "U2AF2 (UniProt P26368)", "sequence (P26368 whole entry)": "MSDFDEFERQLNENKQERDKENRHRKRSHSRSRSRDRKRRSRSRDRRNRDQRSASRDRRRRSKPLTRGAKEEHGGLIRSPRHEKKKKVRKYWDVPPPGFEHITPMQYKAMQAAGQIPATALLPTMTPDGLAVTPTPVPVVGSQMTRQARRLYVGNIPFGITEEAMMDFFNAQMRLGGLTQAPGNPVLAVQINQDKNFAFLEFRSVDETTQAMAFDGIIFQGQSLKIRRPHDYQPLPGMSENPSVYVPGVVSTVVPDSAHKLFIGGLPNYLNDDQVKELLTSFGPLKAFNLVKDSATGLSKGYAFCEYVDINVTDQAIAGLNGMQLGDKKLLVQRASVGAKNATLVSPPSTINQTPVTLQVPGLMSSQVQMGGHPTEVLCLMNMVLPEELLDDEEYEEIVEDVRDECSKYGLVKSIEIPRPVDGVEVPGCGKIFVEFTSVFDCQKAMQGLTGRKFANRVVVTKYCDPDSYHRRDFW", "procedure,_shortened": "as §1"}},
  "note": "pKd: −log10 of the molar value.",
  "data": [
    {"sequence": "UAUUUAU", "values": [
      {"measurement": "pKd", "setting": "[1]", "value": 7.56},
      {"measurement": "pKd", "setting": "[2]", "value": 5.47},
      {"measurement": "pKd", "setting": "[3]", "value": 5.46},
      {"measurement": "pKd", "setting": "[4]", "value": 5.90}
    ]},
    {"sequence": "CUGUCCU", "values": [
      {"measurement": "pKd", "setting": "[5]", "value": 7.09},
      {"measurement": "pKd", "setting": "[6]", "value": 7.35},
      {"measurement": "pKd", "setting": "[7]", "value": 7.69}
    ]},
    {"sequence": "AAUAAA", "values": [
      {"measurement": "pKd", "setting": "[8]", "value": 6.76},
      {"measurement": "pKd", "setting": "[9]", "value": 6.98}
    ]}
  ]
}
